Assay [1] concerns the target H3N2 A/Singapore/INFIMH-16-0019/2016 (H3/Sing16) HA (influenza A virus H3N2 A/Singapore/INFIMH-16-0019/2016). Put plainly: BLI. For orientation: In BLI a coated tip is dipped into the sample, and binding shifts an interference pattern.
Assay [2] deals with influenza B/Lee/1940 (B/Lee40) HA (influenza B virus B/Lee/1940). Put plainly: BLI.
influenza B/Lee/1940 (B/Lee40) HA (influenza B virus B/Lee/1940), sequence (P03460 16-552 limits assumed): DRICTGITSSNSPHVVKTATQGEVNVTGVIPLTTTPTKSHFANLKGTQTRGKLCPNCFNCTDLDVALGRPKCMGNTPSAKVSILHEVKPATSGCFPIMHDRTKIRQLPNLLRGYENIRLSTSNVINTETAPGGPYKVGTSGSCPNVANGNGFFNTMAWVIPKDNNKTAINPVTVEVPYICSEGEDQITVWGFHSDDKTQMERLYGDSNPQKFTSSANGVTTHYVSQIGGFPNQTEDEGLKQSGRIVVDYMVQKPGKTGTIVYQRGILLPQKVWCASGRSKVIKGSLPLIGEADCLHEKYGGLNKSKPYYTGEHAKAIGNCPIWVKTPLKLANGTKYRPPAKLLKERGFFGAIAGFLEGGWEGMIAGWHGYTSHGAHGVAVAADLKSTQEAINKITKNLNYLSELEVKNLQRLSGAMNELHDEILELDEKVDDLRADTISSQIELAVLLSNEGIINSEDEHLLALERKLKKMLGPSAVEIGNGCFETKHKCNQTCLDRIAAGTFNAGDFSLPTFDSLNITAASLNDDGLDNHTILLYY

As for somatic CR9114 Fab, the Kd was 0.036 µM in assay [1] and 0.11 µM in assay [2].

One may read the Kd as the free concentration of one partner at which half of the binding sites on the other are occupied at equilibrium, for simple one-to-one binding. The low end stands for a tighter complex, the high end for a looser complex.
